In PMC4961847 (2016):

Target: PD-L1 ECD (Homo sapiens, UniProt Q9NZQ7)
Experiment: magneto-nanosensor

PD-L1 ECD, sequence (Q9NZQ7 19-238): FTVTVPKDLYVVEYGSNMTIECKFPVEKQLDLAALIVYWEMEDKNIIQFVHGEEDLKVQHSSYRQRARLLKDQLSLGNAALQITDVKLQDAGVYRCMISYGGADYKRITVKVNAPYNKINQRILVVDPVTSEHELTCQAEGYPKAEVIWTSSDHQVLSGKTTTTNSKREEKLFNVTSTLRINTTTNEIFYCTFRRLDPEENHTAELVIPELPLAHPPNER

Kd: 9.1 µM
B1: PD-L2 ECD (protein)
chain: LFTVTVPKELYIIEHGSNVTLECNFDTGSHVNLGAITASLQKVENDTSPHRERATLLEEQLPLGKASFHIPQVQVRDEGQYQCIIIYGVAWDYKYLTLKVKASYRKINTHILKVPETDEVELTCQATGYPLAEVSWPNVSVPANTSHSRTPEGLYQVTSVLRLKPPPGRNFSCVFWNTHVRELTLASIDLQSQMEPRTHPT
